Assay [1] addresses human Folate Receptor Alpha (FOLR1) on cells (human) (UniProt P15328). As to the kind of experiment: saturation binding on IGROV-1 cells, bound against free antibody (Scatchard analysis per paragraph 239).
The target is the same in assay [2]. Kind of assay: cell-based or functional assay.
For assay [3], the target named is T1, cyno FOLR1 on CHO cells (cyno (Cynomolgus macaque), UniProt A0A2K5U044 25-234).
T1 construct: whole, on cells; also called cyFOLR1
As to the kind of experiment: cell binding, CHO cells stably expressing cyno FOLR1.

The target in assay [4] is T2, human Folate Receptor Alpha (FOLR1) on cells (human, UniProt P15328 25-234).
T2 construct: whole, on cells; Endogenous on IGROV-1, OVCAR-3, SKOV-3, HT-29 cells; transfected on CHO cells; the cell is named under assay; also called FRα; FRa
As to the kind of experiment: cell binding, IGROV-1 cells.

The next assay deals with T3, mouse FOLR1 on CHO cells (mouse, UniProt P35846 25-232).
T3 construct: whole, on cells; also called msFOLR1
Kind of assay: flow cytometry on CHO cells stably expressing mouse FOLR1, MFI fold over background. The protocol: IGROV-1 cells, OVCAR-3 cells, CHO cells stably expressing human FOLR1, CHO cells stably expressing cyno FOLR1, and CHO cells stably expressing mouse FOLR1 were incubated with increasing amounts of the indicated antibodies, and binding characteristics were analyzed. Data are presented in FIG. 1, panels A-E, as MFI fold over background.
In general terms: In flow cytometry, cells or beads pass a laser one at a time.

The target in assay [5] is T2, human Folate Receptor Alpha (FOLR1) on …. Kind of assay: cell binding, OVCAR-3 cells.
The next assay deals with recombinant human FOLR1 (human, UniProt P15328 25-234). Kind of assay: BLI, Octet QK-384, recombinant human FOLR1. Here is the method: As used herein, the “Kd” or “Kd value” refers to a dissociation constant determined by BioLayer Interferometry, using an Octet QK384 instrument (Fortebio Inc., Menlo Park, CA) in kinetics mode. For example, anti-mouse Fc sensors are loaded with mouse-Fc fused antigen and then dipped into antibody-containing wells to measure concentration dependent association rates (kon). Antibody dissociation rates (koff) are measured in the final step, where the sensors are dipped into wells containing buffer only. The Kd is the ratio of koff/kon. (For further details see, Concepcion, J, et al., Comb Chem High Throughput Screen, 12 (8), 791-800, 2009).
Table 17 summarizes affinity and epitope bin information for anti-FOLR1 heavy chain antibodies (HCAbs). Column 1 indicates the clone ID of the HCAb. Column 2 indicates the affinity of the HCAb to recombinant human FOLR1 as measured by Bio-layer interferometry (BLI) using an Octet QK-384. Column 3 indicates the epitope bin of HCAb as determined by a competition BLI binding experiment using an Octet QK-384.

Assay [6] concerns the target T4, FOLR3 (folate receptor gamma) (UniProt P41439 23-245, limits assumed).
T4 construct: also called FRγ
Kind of assay: BLI (Octet). (BLI is a label-free optical method that tracks binding on a fibre tip over time.)

For assay [7], the target named is T1, cyno FOLR1 on CHO cells. Kind of assay: flow cytometry, CHO cells stably expressing cyno FOLR1.
The target in assay [8] is T2, human Folate Receptor Alpha (FOLR1) on …. As to the kind of experiment: flow cytometry, CHO cells stably expressing human FOLR1.
Assay [9] has the same target. Kind of assay: cell binding, CHO cells stably expressing human FOLR1.

Where a chain is given by its changes, count along the chain named.

The term EC50 (read off the curve) denotes the concentration that produces a half-maximal response. Low values mean greater potency, high ones weaker potency. One may read the EC50 as the midpoint of the concentration-response curve. Lower therefore signals a more potent agent. By Kd is commonly meant the concentration at which binding is half-saturated.

T1 sequence (A0A2K5U044 entry or part of it): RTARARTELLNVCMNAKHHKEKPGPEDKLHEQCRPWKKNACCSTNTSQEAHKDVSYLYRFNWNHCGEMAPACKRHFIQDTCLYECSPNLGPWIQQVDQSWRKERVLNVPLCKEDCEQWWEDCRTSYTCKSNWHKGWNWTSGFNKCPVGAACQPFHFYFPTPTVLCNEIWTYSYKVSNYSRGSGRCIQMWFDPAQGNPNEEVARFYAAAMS
Chain of recombinant human FOLR1 (P15328 25-234 limits assumed): as the sequence (A0A2K5U044 entry or part of it) above, with T2I, R4W, K37R, P146A, Y171H counted along it
T2 sequence (P15328 25-234): as the sequence (A0A2K5U044 entry or part of it) above, with T2I, R4W, K37R, P146A, Y171H counted along it
Chain of human Folate Receptor Alpha (FOLR1) on cells (human) (P15328 25-234): as the sequence (A0A2K5U044 entry or part of it) above, with T2I, R4W, K37R, P146A, Y171H counted along it
T3 sequence (P35846 25-232): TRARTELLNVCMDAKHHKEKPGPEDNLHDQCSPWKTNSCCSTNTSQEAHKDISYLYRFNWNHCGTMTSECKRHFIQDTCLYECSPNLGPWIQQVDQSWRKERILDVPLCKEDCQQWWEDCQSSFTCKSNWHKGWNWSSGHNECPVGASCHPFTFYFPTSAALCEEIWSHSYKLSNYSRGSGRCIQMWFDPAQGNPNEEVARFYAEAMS
T4 sequence (P41439 23-245 limits assumed): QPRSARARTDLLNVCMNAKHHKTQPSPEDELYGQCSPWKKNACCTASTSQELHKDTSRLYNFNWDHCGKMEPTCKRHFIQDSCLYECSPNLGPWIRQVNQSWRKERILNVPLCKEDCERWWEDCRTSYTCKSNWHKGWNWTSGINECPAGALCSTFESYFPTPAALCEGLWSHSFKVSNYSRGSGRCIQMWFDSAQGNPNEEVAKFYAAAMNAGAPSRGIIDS

The molecule “TNB-928B, fully human bispecific antibody that binds to FOLR1 (FRα) and CD3” displayed an EC50 (read off the curve) in assay [1] of 6 nM. In [2], this molecule displayed an EC50 of ex vivo tumor cell lysis (dissociated ovarian tumor sample) of 45.2 pM and a maximum tumor cell lysis (IGROV-1 cells with human pan T-cells, 48 hours) of 75%.

B1: anti-FOLR1 heavy chain antibody (HCAb, UniAb) clone ID 358598 (antibody, V domains shown)
VH: EVQLVESGGGLVQPGGSLRLSCAASGFSFSSYSMNWVRQAPGKGLEWVSYITSSSDTIEYADSVKGRFTISRDNAKNSLYLQMNSLRDEDTAVYYCASVGLDFDYRGQGTLVTVSS
notes: Heavy chain-only antibody (no light chain), F18 family
In the case of B1, the EC50 with cyno FOLR1 on CHO cells [3] was determined as 2.4 nM; in assay [4] it was 2.6 nM; in assay [5], 0.6 nM; in assay [9] it was 1.9 nM. In addition, the binding result with mouse FOLR1 on CHO cells is “no binding (tested: 100 nM (log[nM] 2))”; in assay [6], “no binding”. The Kd with recombinant human FOLR1 stood at 22.7 nM. For the same molecule, the “fold over background MFI” value was found to be 1010 fold over background with cyno FOLR1 on CHO cells [7] and 1890 fold over background in [8].

B2: anti-FOLR1 heavy chain antibody (HCAb, UniAb) clone ID 358614 (antibody, V domains shown)
VH: B1 VH with N35K, T52S, S53R
notes: as for B1
For B2, the EC50 with cyno FOLR1 on CHO cells [3] came out at 2.7 nM; in assay [4] it was 2.1 nM; in assay [5], 0.7 nM; in assay [9], 1.9 nM. Further, the values for the binding result (with mouse FOLR1 on CHO cells; in assay [6]) were “no binding (tested: 100 nM (log[nM] 2))” and “no binding”, respectively. Moreover, the Kd with recombinant human FOLR1 was 26.8 nM. The “fold over background MFI” value in the assay with cyno FOLR1 on CHO cells [7] amounted to 735 fold over background; in assay [8], 886 fold over background.

B3: anti-FOLR1 heavy chain antibody (HCAb, UniAb) clone ID 358589 (antibody, V domains shown)
VH: EVQLVESGGGLVQPGGSLRLSCAASGFSFSSYSMKWVRQAPGKGLEWVSYISSSSDTIEYADSVKGRFTISRDNAKNSLYLMNSLRDEDTAVYYCASVGLDFDYRGQGTLVTVSS
notes: as for B1
Regarding B3, the EC50 in the assay with cyno FOLR1 on CHO cells [3] turned out to be 1.9 nM; in assay [4], 3.7 nM; in assay [5], 0.9 nM; in assay [9], 3.3 nM. Besides, in the assay with mouse FOLR1 on CHO cells, the binding result was “no binding (tested: 100 nM (log[nM] 2))”. Further, the Kd in the assay with recombinant human FOLR1 is 22.3 nM. Further, the “fold over background MFI” value with cyno FOLR1 on CHO cells [7] was found to be 996 fold over background; in assay [8] it was 1580 fold over background.

For the origin of these results see patent US20240002498A1 (TENEOBIO, published 2024).
